How the values were obtained:
[1] = western blot, FLAG-tagged wild-type SERCA3 in C2C12; conditions: glycan lost; control: vector / control siRNA
[2] = western blot, endogenous SERCA3, C2C12 myotubes ± MG-132; conditions: glycan lost; control: vector / control siRNA

B1: human SERCA3: OGT knockdown (protein)
parent chain: MEAAHLLPAADVLRHFSVTAEGGLSPAQVTGARERYGPNELPSEEGKSLWELVLEQFEDLLVRILLLAALVSFVLAWFEEGEETTTAFVEPLVIMLILVANAIVGVWQERNAESAIEALKEYEPEMGKVIRSDRKGVQRIRARDIVPGDIVEVAVGDKVPADLRLIEIKSTTLRVDQSILTGESVSVTKHTEAIPDPRAVNQDKKNMLFSGTNITSGKAVGVAVATGLHTELGKIRSQMAAVEPERTPLQRKLDEFGRQLSHAISVICVAVWVINIGHFADPAHGGSWLRGAVYYFKIAVALAVAAIPEGLPAVITTCLALGTRRMARKNAIVRSLPSVETLGCTSVICSDKTGTLTTNQMSVCRMFVVAEADAGSCLLHEFTISGTTYTPEGEVRQGDQPVRCGQFDGLVELATICALCNDSALDYNEAKGVYEKVGEATETALTCLVEKMNVFDTDLQALSRVERAGACNTVIKQLMRKEFTLEFSRDRKSMSVYCTPTRPHPTGQGSKMFVKGAPESVIERCSSVRVGSRTAPLTPTSREQILAKIRDWGSGSDTLRCLALATRDAPPRKEDMELDDCSKFVQYETDLTFVGCVGMLDPPRPEVAACITRCYQAGIRVVMITGDNKGTAVAICRRLGIFGDTEDVAGKAYTGREFDDLSPEQQRQACRTARCFARVEPAHKSRIVENLQSFNEITAMTGDGVNDAPALKKAEIGIAMGSGTAVAKSAAEMVLSDDNFASIVAAVEEGRAIYSNMKQFIRYLISSNVGEVVCIFLTAILGLPEALIPVQLLWVNLVTDGLPATALGFNPPDLDIMEKLPRSPREALISGWLFFRYLAIGVYVGLATVAAATWWFVYDAEGPHINFYQLRNFLKCSEDNPLFAGIDCEVFESRFPTTMALSVLVTIEMCNALNSVSENQSLLRMPPWMNPWLLVAVAMSMALHFLILLVPPLPLIFQVTPLSGRQWVVVLQISLPVILLDEALKYLSRNHMHEEMSQK
[1]
  expression_or_secretion: decreases

B2: SERCA3: siRNA-mediated knockdown of OGT (protein)
parent chain: MEEAHLLSAADVLRRFSVTAEGGLSLEQVTDARERYGPNELPTEEGKSLWELVVEQFEDLLVRILLLAALVSFVLAWFEEGEETTTAFVEPLVIMLILVANAIVGVWQERNAESAIEALKEYEPEMGKVIRSDRKGVQRIRARDIVPGDIVEVAVGDKVPADLRLIEIKSTTLRVDQSILTGESVSVTKHTDAIPDPRAVNQDKKNMLFSGTNIASGKALGVAVATGLQTELGKIRSQMAAVEPERTPLQRKLDEFGRQLSHAISVICVAVWVINIGHFADPAHGGSWLRGAVYYFKIAVALAVAAIPEGLPAVITTCLALGTRRMARKNAIVRSLPSVETLGCTSVICSDKTGTLTTNQMSVCRMFVVAEAEAGTCRLHEFTISGTTYTPEGEVRQGEQPVRCGQFDGLVELATICALCNDSALDYNEAKGVYEKVGEATETALTCLVEKMNVFDTDLKGLSRVERAGACNSVIKQLMRKEFTLEFSRDRKSMSVYCTPTRADPKVQGSKMFVKGAPESVIERCSSVRVGSRTAPLSTTSREHILAKIRDWGSGSDTLRCLALATRDTPPRKEDMHLDDCSRFVQYETDLTFVGCVGMLDPPRPEVAACITRCSRAGIRVVMITGDNKGTAVAICRRLGIFGDTEDVLGKAYTGREFDDLSPEQQRQACRTARCFARVEPAHKSRIVENLQSFNEITAMTGDGVNDAPALKKAEIGIAMGSGTAVAKSAAEMVLSDDNFASIVAAVEEGRAIYNNMKQFIRYLISSNVGEVVCIFLTAILGLPEALIPVQLLWVNLVTDGLPATALGFNPPDLDIMEKPPRNPREALISGWLFFRYLAIGVYVGLATVAAATWWFLYDTEGPQVTFYQLRNFLKCSEDNPLFAGIDCKVFESRFPTTMALSVLVTIEMCNALNSVSENQSLLRMPPWLNPWLLGAVVMSMALHFLILLVPPLPLIFQVTPLSGRQWGVVLQMSLPVILLDEALKYLSRNHMDEKKDLK
[2]
  expression_or_secretion: decreases
